System: T1, synthetic model peptide substrate PLVQ conjugated with 7-amino-4-methylcoumarin (AMC)
T1 sequence: PLVQ

Row | Substance | enzymatic (proteolytic) activity: hydrolysis of PLVQ-AMC, fluorescence of free AMC
1 | recombinant truncated triticain-alpha with a C-terminal polyhistidine sequence, expressed in soluble form in E. coli | significantly exceeded the activity of the truncated triticain-alpha preparation 6HIS-Triticain-α-GM, obtained in an insoluble form, as well as that of papain
2 | recombinant truncated triticain-alpha with an N-terminal polyhistidine sequence, expressed in soluble form in E. coli | significantly exceeded the activity of the truncated triticain-alpha preparation 6HIS-Triticain-α-GM, obtained in an insoluble form, as well as that of papain

Source: patent publication US20220162619
